B1: 2F1 (scFv)
scFv: QVQLVQSGAEVKKPGSSVKVSCKASGGTFSSYAISWVRQAPGQGLEWMGGITPLFGTANYAQKFQGRVTITADDSTSTAYMELSSLRSEDTAVYYCARGPTLYSPPVFDVWGQGTLVTVSSGGGSGGGSGGGSGGGSQTVVTQEPSFSVSPGGTITLTCGLSSGSVSTTNYPSWYQQTPGRTPRTLIYNTNTRSSGVPDRFSGSILGNKAALTITGAQAGDESDYYCVLYMGRGIYVFGSGTKVSVL
B2: 6F3 (scFv)
scFv: QVQLVQSGAEVKKPGSSVKVSCKASGGPFSSYAISWVRQAPGQGLEWMGGISPMFGTANYAQKFQGRVTITADESTSTVYMELSSLRSEDTAVYYCARGYSYYPGGGGGRNFDYWGQGTLVTVSSGGGSGGGSGGGSGGGSLPVLTQPPSASGTPGQRVTISCSGSSSNIGSNTVNWYQQLPGTAPKLLIYSNNQRPSGVPDRFSGSKSGTSASLAISGLQSEGEADYYCAAWDDSLKGRVFGGGTKVTVL
B3: 5A8 (scFv)
scFv: QVQLVQSGAEVKKPGSSVKVSCKASGGTFSSYAISWVRQAPGQGLEWMGGISPIFGTANYAQKFQGRVTITADESTSTVYMELSSLRSEDTAVYYCARGPGYHPAGASGQFFDLWGQGTLVTVSSGGGSGGGSGGGSGGGSSYELTQPPSVSKDLRQTATLTCTGNSNNVGNQGAAWLQQHQGHPPKLLSYRNNHRPSGISDRSSASRSGDTASLTITGLQPEDEADYYCSAWDSSLSAWVFGGGTKLTVL
B4: 2H4 (anti-H1CA0409) (scFv)
scFv: QVQLVQSGAEVKKPGSSVKVSCKASGVTFSSYAISWVRQAPGQGLEWMGGITPIFGTANYAQKFQGRVTITADQSTSTAYMELSSLRSEDTAVYYCARGGGVFDVWGQGTLVTVSSGGGSGGGSGGGSGGGSSYELTQPPSVSGAPRQRVTISCSGSSSNIGNNAVNWYQQLPGKAPKLLIYYDDMLPSGVSDRFSGSKSGSSASLAISGLQSEDEADYYCAAWDDSLSGPVFGGGTNLTVL
B5: 4F5 (scFv)
scFv: QVQLVQSGAEVKKPGSSVKVSCKASGVTFRSYAISWVRQAPGQGLEWMGGISGIFGTANYAQKFQGRVTITADESTSTAYMELSSLRSEDTAVYYCARSPAYYFGPNMDVWGQGTLVTVSSGGGSGGGSGGGSGGGSQSVLTQPPSVSGAPGQRVTISCTGSSSNIGAGYDVHWYQQLPGTVPKLIIYDNSNRPSGVPARFSGSKSGTSASLAISGLQSEDEAAYYCQSYDSSLSVVVFGGGTKLSVL
B6: 2H3 (scFv)
scFv: QVQLVQSGAEVKKPGSSVKVSCKASGGPFSSYAISWVRQAPGQGLEWMGGIIPIFGTANYAQKFQGRVTITADESTSTAYMELSSLRSEDTAVYYCARGTDYSGYRGFDVWGQGTLVTVSSGGGSGGGSGGGSGGGSQTVVTQEPSFSVSPGGTVTLTCALSSGSVSSFNYASWYQQTPGQAPRTLISNTNTRSSGVPDRFSGSILGNKATLTITGAQADDESHYYCALYVGGGISVFGGGTKLTVL
B7: 2G3 (scFv)
scFv: QVQLVQSGAEVKKPGSSVKVSCKASGGTFRSYAISWVRQAPGQGLEWMGGIMPIFGTANYAQKFQGRVTITADESTTTVYMELSSLRSEDTAVYYCARGAGVSAGPSWPFDVWGQGTLVTVSSGGGSGGGSGGGSGGGSQPGLTQPPSVSKDLRQTATLTCTGNSNNVGKQGATWLQQHQGHPPKLLSYRNNNRPSGISERFSASRSGDTASLTITGLQPEDEADYYCSAWDSSLSVWVFGGGTKLTVL
B8: 5B9 (scFv)
scFv: QVQLVQSGAEVKKPGSSVKVSCKASGVTFSSYAISWVRQAPGQGLEWMGGISPMFGTANYAQKFQGRVTITADESTNTAYMELSSLRSEDTAVYYCARGRGYAPDALTNFDVWGQGTLVTVSSGGGSGGGSGGGSGGGSEIVLTQSPDSLAMSLGERATVNCKSSRSLFDSSDNKNYLAWYQKKPGQPPQLLIYWASTRQSGVPDRFSGSGSGTDFTLTISSLQAEDVAVYYCQQYFSSPPIFTFGPGTKVEIK
B9: 4C4 (scFv)
scFv: QVQLVQSGAEVKKPGSSVKVSCKASGGTFSSYAISWVRQAPGQGLEWMGGISPMFGTANYAQKFQGRVTITADKSTSTAYMELSSLRSEDTAVYYCAREGGYSPGGVDFDYWGQGTLVTVSSGGGSGGGSGGGSGGGSNFMLTQPHSVSESPGKTVTISCTRSSGSIASTYVQWYRQRPGSAPTTVIYEDHQRPSGVPDRFSGSLDSSSNSASLTISGLRTEDAATYYCQSFDASTLVFGGGTKLTVL
B10: 9H3 (scFv)
scFv: QVQLVQSGAEVKKPGSSVKVSCKASGGIFSSYAISWVRQAPGQGLEWMGGISPIFGTANYAQKFQGRVTITADESTNTAYMELSSLRSEDTAVYYCARSGGYYDYGVGYDQWGQGTLVTVSSGGGSGGGSGGGSGGGSQPVLTQPPSASGTPGQRVTISCSGGRSNIGSNTVNWYQQLPGTAPKLLIYSNNHRPSGVPDRFSGSKSGNTASLTISGLQAEDEADYYCQSYDSSVVFGGGTKLTVL

The assay has as its target A/California/04/2009 (H1CA0409) recombinant HA (influenza A virus A/California/04/2009, UniProt P26140 18-529). Nature of the assay: phage display panning (immunotube) against trimeric HA.
On to B1, for which the binding result is “binds”.

For the molecule B2, the binding result is “binds”.

Regarding B3, the binding result is “binds”.

For B4, the binding result is “binds”.

For B5, the binding result is given as “binds”.

Consider B6, for which the binding result was “binds”.

As for B7, the binding result is on record as “binds”.

On to B8, for which the binding result was “binds”.

Consider B9, for which the binding result is on record as “binds”.

With B10, the binding result is “binds”.
